Measurements published in patent publication US9981059B2, “Sugar chain-polypeptide complex” (Glytech, Inc., priority 2013, dated 2018).

Legend:
[1] = Steel ball loading test of hydrogel property; assay type: physicochemical; set-up: key to position of the steel ball / hydrogel state: The state of the steel ball staying near the hydrogel surface was set as ◯; sinking after loading and staying internally was set as Δ; sinking to the bottom of the Durham's tube was set as X; * was added to those where the hydrogel was not uniform and clouding or insoluble matter (precipitate) was observed
Method: Ten mg of the sugar chain-polypeptide complex or 10 mg of the control polypeptide were dissolved in 500 μL of ultrapure water to prepare 2 wt. % polypeptide solutions. […] In doing so, citrate-phosphate buffer (pH 2.0 and 3.5), phosphate buffer (pH 7.4), and phosphate-sodium hydroxide buffer (pH 11.5) were employed as the buffer. The surface of the hydrogel inside the Durham's tube was horizontally placed, left still for 20 minutes under room temperature conditions, and a steel ball (diameter 1.56 mm, weight 16 mg, FUNABE SEIKO Co., Ltd.) was loaded on the hydrogel. After 10 minutes, the position of the steel ball was observed by visual confirmation.
The position of the steel ball inside the Durham's tube was evaluated in 3 grades. The state of the steel ball staying near the hydrogel surface was set as ◯, sinking after loading and staying internally was set as Δ, and sinking to the bottom of the Durham's tube was set as X. In addition, * was added to those where the hydrogel was not uniform and clouding or insoluble matter (precipitate) was observed. A hydrogel where the steel ball stays around the surface (◯) and no clouding or insoluble matter is seen (no *) was thought to be a gel that is transparent and uniform.

[2] = Kinetic viscosity measurement with rheometer; assay type: physicochemical; conditions: 0.5 wt. % hydrogel, pH 7, 25 degrees
Method: A rheometer (MCR302, Anton Paar GmbH) equipped with a stainless steel parallel plate having a diameter of 25 mm with 0.3 mm gap height was employed for kinetic viscosity measurement. […] Five millimolars of aqueous sodium hydroxide solution was added to these aqueous polypeptide solutions in order to adjust the pH to prepare 0.5 wt. % hydrogels at pH 7. Subsequently, these hydrogels were quickly transferred to a rheometer set at 25 degrees, and phase angle (tan δ) was monitored over a time course. (frequency=1 Hz, distortion=10%)

[3] = Circular dichroism (CD) measurement of β sheet structure; assay type: physicochemical
Method: In general, the characteristics of the wavelengths observed when a substance has a β sheet structure are a positive absorption at around 197 nm and a negative absorption at around 216 nm. For this reason, focus was placed on the size of these wavelengths in the present invention, and the influence of pH on the β sheet structure was investigated.
One to ten millimolars of aqueous sodium hydroxide solutions were added to each of these aqueous polypeptide solutions to adjust the pH, and 100 mM aqueous polypeptide solutions at having pH 2 or pH 7 were created. These aqueous solutions were transferred to quartz cells having an optical path length of 0.1 cm. The CD spectrum was then measured with a spectrum polarimeter (J-805, Jasco) at wavelengths of 185-260 nm for ellipticity (millidegree). The mean residue ellipticity θ was calculated with the following formula: [θ]=(θobs/10·l·c)/r
wherein θobs represents the ellipticity measured in millidegree, l represents the cell length (cm), c represents the concentration (M), and r represents the number of amino acid residues.

[4] = Steel ball loading test of hydrogels comprising rat blood plasma (utility as hemostatic matrix); assay type: physicochemical; conditions: polypeptide 0.5 wt. %
Method: Aqueous polypeptide solutions were prepared with a method similar to Example 1. Blood was collected from 7 weeks-old Crlj:WI rats with heparin sodium injection (Ajinomoto), and blood plasma was obtained from the supernatant after centrifugation treatment. The aqueous polypeptide solution, blood plasma, and PBS were added to a Durham's tube, and hydrogels was prepared so that the plasma concentration was 5-50% and the polypeptide concentration was 0.5 wt. %. Subsequently, these were left for 20 minutes at room temperature condition, and then steel ball loading tests were carried out with a method similar to Example 1.

[5] = molecular target: T1, Bovine Serum Albumin (BSA) (Bos taurus, UniProt P02769); test: Controlled release capability for acidic protein encapsulated in hydrogel
T1 construct: purchased Life Technologies A13100
T1 sequence (P02769 25-607): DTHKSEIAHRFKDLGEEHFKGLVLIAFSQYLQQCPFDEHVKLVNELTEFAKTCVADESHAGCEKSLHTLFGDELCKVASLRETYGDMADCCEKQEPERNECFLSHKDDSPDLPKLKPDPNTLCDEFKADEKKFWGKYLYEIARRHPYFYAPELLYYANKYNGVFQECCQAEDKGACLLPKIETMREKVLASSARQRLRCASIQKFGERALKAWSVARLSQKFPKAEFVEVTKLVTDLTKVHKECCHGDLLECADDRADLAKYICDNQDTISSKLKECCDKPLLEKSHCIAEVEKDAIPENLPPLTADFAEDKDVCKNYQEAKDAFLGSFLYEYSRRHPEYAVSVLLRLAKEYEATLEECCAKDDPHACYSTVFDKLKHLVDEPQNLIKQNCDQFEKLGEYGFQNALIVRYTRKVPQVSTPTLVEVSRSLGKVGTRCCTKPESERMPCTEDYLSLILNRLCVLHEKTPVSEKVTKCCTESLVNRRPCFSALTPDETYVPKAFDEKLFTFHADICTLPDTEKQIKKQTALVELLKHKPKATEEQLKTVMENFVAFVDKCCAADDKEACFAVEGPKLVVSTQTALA
Method: A phosphate buffer (pH 7.4) was employed as the buffer. Moreover, Bovine Serum Albumin (BSA) fluorescently labeled with Alexa Fluor™ 488 (A13100, Life Technologies) was employed as the acidic protein to be encapsulated into the hydrogel.
The components were added to the tube so that the buffer salt concentration is 0.15 M, the BSA concentration is 5 μM, and the polypeptide concentration is 0.25-1 wt. %, and mixed by vortex. The mixture was added to the Multiwell Insert System (351130, BD) at 50 μL each, and left overnight in an incubator at 37 degrees (CO2 incubator for cell culture, MCO-18AIC, SANYO) with shading to prepare BSA-encapsulating hydrogels. In the incubator at 37 degrees, the Insert System was immersed in a 96-well flat bottom plate (353928, BD) with a buffer identical to the hydrogel added at 225 μL each, and the plate was shaken with a plate shaker (MICRO PLATE MIXER NS-P, AS ONE Corporation, rotation speed: ⅕ of scale) to initiate the test (0 hours). Subsequently, the fluorescence amount that leaked out over time on the flat bottom plate side was measured with a fluorescence plate reader (SpectraMax M3, Molecular Devices, LLC.). A standard curve was created with the identical fluorescently-labeled BSA, and the protein concentration was calculated from the amount of fluorescent dye that leaked out. A solution of only BSA added to the buffer (W/O SAP) was employed as the control.

[6] = hydrogel concentration 0.5 wt. %, pH 3.5
[7] = hydrogel concentration 0.5 wt. %, pH 7.4

Substance	hydrogel formed (in words) ([1]; 0.5 wt. %, pH 3.5 and pH 7.4)	position of the steel ball / hydrogel state [1, 6]	position of the steel ball / hydrogel state [1, 7]	further results
3C(Maltose)-(RADA)4 [Compound 12]	transparent and uniform hydrogels	◯	◯	
(RADA)4 [Compound 1]		X*	X*	rigidity of hydrogel formed [2]: a fragile hydrogel is formed, or an ununiform hydrogel that is only partially rigid is formed; phase angle (tan δ) over a time course ([2]; frequency 1 Hz, distortion 10%): large phase angle; hydrogel formed (in words) ([1]; 1 wt. %, pH 2.0): transparent and uniform hydrogel; hydrogel formed (in words) ([1]; 1 wt. %, pH 3.5 or higher): ununiform hydrogel with clouding; position of the steel ball / hydrogel state ([1]; peptide concentration 1 wt. %, pH 2.0): ◯; position of the steel ball / hydrogel state ([1]; peptide concentration 1 wt. %, pH 3.5): Δ*; position of the steel ball / hydrogel state ([1]; peptide concentration 1 wt. %, pH 7.4): X*; position of the steel ball / hydrogel state ([1]; peptide concentration 1 wt. %, pH 11.5): X*; β sheet structure formation ([3]; neutral pH): formed almost no β sheet structure; molar ellipticity (CD) ([3]; pH 2, 100 mM aqueous polypeptide solution): high molar ellipticity; molar ellipticity (CD) ([3]; pH 7, 100 mM aqueous polypeptide solution): significantly reduced; position of the steel ball / hydrogel state ([4]; plasma concentration 5%): X*; hydrogel formed in presence of blood plasma (in words) ([4]; plasma concentration 5-50%): clouded and insoluble matters were observed at all plasma concentrations; position of the steel ball / hydrogel state ([4]; plasma concentration 10%): X*; position of the steel ball / hydrogel state ([4]; plasma concentration 25%): Δ*; position of the steel ball / hydrogel state ([4]; plasma concentration 50%): Δ*; controlled release capability (BSA leakage speed vs solution without any polypeptide) ([5]; pH 7.4, polypeptide 0.5 wt. % or less): does not possess controlled release capability; leakage of BSA encapsulated in the hydrogel ([5]; phosphate buffer pH 7.4, 37 degrees, polypeptide 0.25-1 wt. %): leaked out in a short time
(RATARAEA)2 (RATARAEARATARAEA) [Compound 16]	ununiform and clouded hydro gel	X*	X*	
C(Maltose)-(RADA)4-C(Maltose) [Compound 10]		◯*	X*	hydrogel formed (in words) ([1]; Example 4, 0.5 wt. %, pH 7.4): did not form hydrogels
C(PEG2000)-(RADA)4 [Compound 14]	uniform hydrogels were not formed	X	X	
C(DiGlcNAc)-(RADA)4 [Compound 2]				controlled release capability (BSA leakage speed vs solution without any polypeptide) ([5]; pH 7.4, concentration as low as 0.25 wt. %): showing controlled release capability
C(Maltotriose)-(RADA)4-C(Maltotriose) [Compound 11]	transparent and uniform hydrogels	◯	◯	
2C(Maltotriose)-(RADA)4 [Compound 9]	transparent and uniform hydrogels	◯	◯	
2C(Maltose)-(RADA)4 [Compound 8]		◯*	X*	hydrogel formed (in words) ([1]; Example 4, 0.5 wt. %, pH 7.4): did not form hydrogels
